Results from patent US20180155451A1 (published 2018).

T1: FcγRIIa R (human, UniProt P12318 34-217)
T1 construct: extracellular domain; also called FcgRIIa R type; 2aR
T1 sequence (looked up): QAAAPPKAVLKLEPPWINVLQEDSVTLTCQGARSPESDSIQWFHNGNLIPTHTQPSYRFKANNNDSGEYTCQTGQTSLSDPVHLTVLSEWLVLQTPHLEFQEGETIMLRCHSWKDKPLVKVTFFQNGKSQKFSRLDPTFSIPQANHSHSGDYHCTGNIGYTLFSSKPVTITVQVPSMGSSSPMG

B1: GpH7-A5/GpH7-B3 variant G237_08L/GpL16-k0 (antibody, human IgG1, kappa)
heavy 1: not shown
heavy 2: not shown
light: DIVMTQSPLSLPVTPGEPASISCQASESLVHSNRNTYLHWYLQKPGQSPQLLIYKVSNRFSGVPDRFSGSGSGTDFTLKISRVEAEDVGVYYCSQNTHVPPTFGQGTKVEIERTVAAPSVFIFPPSDEQLKSGTASVVCLLNNFYPREAKVQWKVDNALQSGNSQESVTEQDSKDSTYSLSSTLTLSKADYEKHKVYACEVTHQGLSSPVTKSFNRGEC
notes: also called He Ab G237_08L
B2: GpH7-A5/GpH7-B3 variant H268_12R/GpL16-k0 (antibody, human IgG1, kappa)
heavy 1: not shown
heavy 2: not shown
light: B1 light
notes: also called He Ab H268_12R
B3: GpH7-A5/GpH7-B3 variant G237_19Q/GpL16-k0 (antibody, human IgG1, kappa)
heavy 1: not shown
heavy 2: not shown
light: B1 light
notes: also called He Ab G237_19Q
B4: GpH7-A5/GpH7-B3 variant K334_02A/GpL16-k0 (antibody, human IgG1, kappa)
heavy 1: not shown
heavy 2: not shown
light: B1 light
notes: also called He Ab K334_02A
B5: GpH7-A5/GpH7-B3 variant I336_06M/GpL16-k0 (antibody, human IgG1, kappa)
heavy 1: not shown
heavy 2: not shown
light: B1 light
notes: also called He Ab I336_06M
B6: GpH7-A5/GpH7-B3 variant L328_02A/GpL16-k0 (antibody, human IgG1, kappa)
heavy 1: not shown
heavy 2: not shown
light: B1 light
notes: also called He Ab L328_02A
B7: GpH7-A5/GpH7-B3 variant N325_04F/GpL16-k0 (antibody, human IgG1, kappa)
heavy 1: not shown
heavy 2: not shown
light: B1 light
notes: also called He Ab N325_04F
B8: GpH7-A5/GpH7-B3 variant G237_09D/GpL16-k0 (antibody, human IgG1, kappa)
heavy 1: not shown
heavy 2: not shown
light: B1 light
notes: also called He Ab G237_09D
B9: GpH7-A5/GpH7-B3 variant K326_15Y/GpL16-k0 (antibody, human IgG1, kappa)
heavy 1: not shown
heavy 2: not shown
light: B1 light
notes: also called He Ab K326_15Y
B10: GpH7-A5/GpH7-B3 variant L235_20W/GpL16-k0 (antibody, human IgG1, kappa)
heavy 1: not shown
heavy 2: not shown
light: B1 light
notes: also called He Ab L235_20W
B11: GpH7-A5/GpH7-B3 variant L235_09D/GpL16-k0 (antibody, human IgG1, kappa)
heavy 1: not shown
heavy 2: not shown
light: B1 light
notes: also called He Ab L235_09D
B12: GpH7-A5/GpH7-B3 variant L328_13S/GpL16-k0 (antibody, human IgG1, kappa)
heavy 1: not shown
heavy 2: not shown
light: B1 light
notes: also called He Ab L328_13S
B13: GpH7-A5/GpH7-B3 variant K334_20W/GpL16-k0 (antibody, human IgG1, kappa)
heavy 1: not shown
heavy 2: not shown
light: B1 light
notes: also called He Ab K334_20W
B14: GpH7-A5/GpH7-B3 variant K334_10E/GpL16-k0 (antibody, human IgG1, kappa)
heavy 1: not shown
heavy 2: not shown
light: B1 light
notes: also called He Ab K334_10E
B15: GpH7-A5/GpH7-B3 variant H268_05P/GpL16-k0 (antibody, human IgG1, kappa)
heavy 1: not shown
heavy 2: not shown
light: B1 light
notes: also called He Ab H268_05P
B16: GpH7-A5/GpH7-B3 variant H268_11K/GpL16-k0 (antibody, human IgG1, kappa)
heavy 1: not shown
heavy 2: not shown
light: B1 light
notes: also called He Ab H268_11K
B17: GpH7-A5/GpH7-B3 variant L328_09D/GpL16-k0 (antibody, human IgG1, kappa)
heavy 1: not shown
heavy 2: not shown
light: B1 light
notes: also called He Ab L328_09D
B18: GpH7-A5/GpH7-B3 variant L234_04F/GpL16-k0 (antibody, human IgG1, kappa)
heavy 1: not shown
heavy 2: not shown
light: B1 light
notes: also called He Ab L234_04F
B19: GpH7-A5/GpH7-B3 variant K334_05P/GpL16-k0 (antibody, human IgG1, kappa)
heavy 1: not shown
heavy 2: not shown
light: B1 light
notes: also called He Ab K334_05P
B20: GpH7-A5/GpH7-B3 variant I332_14T/GpL16-k0 (antibody, human IgG1, kappa)
heavy 1: not shown
heavy 2: not shown
light: B1 light
notes: also called He Ab I332_14T
B21: GpH7-A5/GpH7-B3 variant G237_18N/GpL16-k0 (antibody, human IgG1, kappa)
heavy 1: not shown
heavy 2: not shown
light: B1 light
notes: also called He Ab G237_18N
B22: GpH7-A5/GpH7-B3 variant L328_10E/GpL16-k0 (antibody, human IgG1, kappa)
heavy 1: not shown
heavy 2: not shown
light: B1 light
notes: also called He Ab L328_10E
B23: GpH7-A5/GpH7-B3 variant K334_04F/GpL16-k0 (antibody, human IgG1, kappa)
heavy 1: not shown
heavy 2: not shown
light: B1 light
notes: also called He Ab K334_04F
B24: GpH7-A5/GpH7-B3 variant N325_07I/GpL16-k0 (antibody, human IgG1, kappa)
heavy 1: not shown
heavy 2: not shown
light: B1 light
notes: also called He Ab N325_07I
B25: GpH7-A5/GpH7-B3 variant K334_12R/GpL16-k0 (antibody, human IgG1, kappa)
heavy 1: not shown
heavy 2: not shown
light: B1 light
notes: also called He Ab K334_12R
B26: GpH7-A5/GpH7-B3 variant K334_19Q/GpL16-k0 (antibody, human IgG1, kappa)
heavy 1: not shown
heavy 2: not shown
light: B1 light
notes: also called He Ab K334_19Q
B27: GpH7-A5/GpH7-B3 variant L234_09D/GpL16-k0 (antibody, human IgG1, kappa)
heavy 1: not shown
heavy 2: not shown
light: B1 light
notes: also called He Ab L234_09D
B28: GpH7-A5/GpH7-B3 variant N325_08L/GpL16-k0 (antibody, human IgG1, kappa)
heavy 1: not shown
heavy 2: not shown
light: B1 light
notes: also called He Ab N325_08L
B29: GpH7-A5/GpH7-B3 variant K326_20W/GpL16-k0 (antibody, human IgG1, kappa)
heavy 1: not shown
heavy 2: not shown
light: B1 light
notes: also called He Ab K326_20W
B30: GpH7-A5/GpH7-B3 variant N325_03V/GpL16-k0 (antibody, human IgG1, kappa)
heavy 1: not shown
heavy 2: not shown
light: B1 light
notes: also called He Ab N325_03V
B31: GpH7-A5/GpH7-B3 variant K326_12R/GpL16-k0 (antibody, human IgG1, kappa)
heavy 1: not shown
heavy 2: not shown
light: B1 light
notes: also called He Ab K326_12R
B32: GpH7-A5/GpH7-B3 variant G237_10E/GpL16-k0 (antibody, human IgG1, kappa)
heavy 1: not shown
heavy 2: not shown
light: B1 light
notes: also called He Ab G237_10E
B33: GpH7-A5/GpH7-B3 variant I332_06M/GpL16-k0 (antibody, human IgG1, kappa)
heavy 1: not shown
heavy 2: not shown
light: B1 light
notes: also called He Ab I332_06M
B34: GpH7-A5/GpH7-B3 variant L235_04F/GpL16-k0 (antibody, human IgG1, kappa)
heavy 1: not shown
heavy 2: not shown
light: B1 light
notes: also called He Ab L235_04F
B35: GpH7-A5/GpH7-B3 variant K326_07I/GpL16-k0 (antibody, human IgG1, kappa)
heavy 1: not shown
heavy 2: not shown
light: B1 light
notes: also called He Ab K326_07I
B36: GpH7-A5/GpH7-B3 variant H268_03V/GpL16-k0 (antibody, human IgG1, kappa)
heavy 1: not shown
heavy 2: not shown
light: B1 light
notes: also called He Ab H268_03V
B37: GpH7-A5/GpH7-B3 variant I336_08L/GpL16-k0 (antibody, human IgG1, kappa)
heavy 1: not shown
heavy 2: not shown
light: B1 light
notes: also called He Ab I336_08L
B38: GpH7-A5/GpH7-B3 variant K334_08L/GpL16-k0 (antibody, human IgG1, kappa)
heavy 1: not shown
heavy 2: not shown
light: B1 light
notes: also called He Ab K334_08L
B39: GpH7-A5/GpH7-B3 variant L235_15Y/GpL16-k0 (antibody, human IgG1, kappa)
heavy 1: not shown
heavy 2: not shown
light: B1 light
notes: also called He Ab L235_15Y
B40: GpH7-A5/GpH7-B3 variant K326_03V/GpL16-k0 (antibody, human IgG1, kappa)
heavy 1: not shown
heavy 2: not shown
light: B1 light
notes: also called He Ab K326_03V
B41: GpH7-A5/GpH7-B3 variant L328_14T/GpL16-k0 (antibody, human IgG1, kappa)
heavy 1: not shown
heavy 2: not shown
light: B1 light
notes: also called He Ab L328_14T
B42: GpH7-A5/GpH7-B3 variant H268_01G/GpL16-k0 (antibody, human IgG1, kappa)
heavy 1: not shown
heavy 2: not shown
light: B1 light
notes: also called He Ab H268_01G
B43: GpH7-A5/GpH7-B3 variant G237_15Y/GpL16-k0 (antibody, human IgG1, kappa)
heavy 1: not shown
heavy 2: not shown
light: B1 light
notes: also called He Ab G237_15Y
B44: GpH7-A5/GpH7-B3 variant K326_18N/GpL16-k0 (antibody, human IgG1, kappa)
heavy 1: not shown
heavy 2: not shown
light: B1 light
notes: also called He Ab K326_18N
B45: GpH7-A5/GpH7-B3 variant G237_13S/GpL16-k0 (antibody, human IgG1, kappa)
heavy 1: not shown
heavy 2: not shown
light: B1 light
notes: also called He Ab G237_13S
B46: GpH7-A5/GpH7-B3 variant L234_10E/GpL16-k0 (antibody, human IgG1, kappa)
heavy 1: not shown
heavy 2: not shown
light: B1 light
notes: also called He Ab L234_10E
B47: GpH7-A5/GpH7-B3 variant G237_20W/GpL16-k0 (antibody, human IgG1, kappa)
heavy 1: not shown
heavy 2: not shown
light: B1 light
notes: also called He Ab G237_20W
B48: GpH7-A5/GpH7-B3 variant K334_13S/GpL16-k0 (antibody, human IgG1, kappa)
heavy 1: not shown
heavy 2: not shown
light: B1 light
notes: also called He Ab K334_13S
B49: GpH7-A5/GpH7-B3 variant K326_04F/GpL16-k0 (antibody, human IgG1, kappa)
heavy 1: not shown
heavy 2: not shown
light: B1 light
notes: also called He Ab K326_04F
B50: GpH7-A5/GpH7-B3 variant N325_01G/GpL16-k0 (antibody, human IgG1, kappa)
heavy 1: not shown
heavy 2: not shown
light: B1 light
notes: also called He Ab N325_01G
B51: GpH7-A5/GpH7-B3 variant H268_20W/GpL16-k0 (antibody, human IgG1, kappa)
heavy 1: not shown
heavy 2: not shown
light: B1 light
notes: also called He Ab H268_20W
B52: GpH7-A5/GpH7-B3 variant L234_20W/GpL16-k0 (antibody, human IgG1, kappa)
heavy 1: not shown
heavy 2: not shown
light: B1 light
notes: also called He Ab L234_20W
B53: GpH7-A5/GpH7-B3 variant H268_15Y/GpL16-k0 (antibody, human IgG1, kappa)
heavy 1: not shown
heavy 2: not shown
light: B1 light
notes: also called He Ab H268_15Y
B54: GpH7-A5/GpH7-B3 variant K326_08L/GpL16-k0 (antibody, human IgG1, kappa)
heavy 1: not shown
heavy 2: not shown
light: B1 light
notes: also called He Ab K326_08L
B55: GpH7-A5/GpH7-B3 variant I336_18N/GpL16-k0 (antibody, human IgG1, kappa)
heavy 1: not shown
heavy 2: not shown
light: B1 light
notes: also called He Ab I336_18N

Biological target: T1, FcγRIIa R
Assay: SPR Biacore; vs GpH7-A5/GpH7-B3/GpL16-k0 =100

| Binder | He/Con_2aR |
| --- | --- |
| B1 | 133 % of control |
| B2 | 105 % of control |
| B3 | 121 % of control |
| B4 | 105 % of control |
| B5 | 106 % of control |
| B6 | 117 % of control |
| B7 | 120 % of control |
| B8 | 156 % of control |
| B9 | 136 % of control |
| B10 | 131 % of control |
| B11 | 101 % of control |
| B12 | 117 % of control |
| B13 | 105 % of control |
| B14 | 106 % of control |
| B15 | 106 % of control |
| B16 | 100 % of control |
| B17 | 119 % of control |
| B18 | 104 % of control |
| B19 | 103 % of control |
| B20 | 105 % of control |
| B21 | 150 % of control |
| B22 | 105 % of control |
| B23 | 110 % of control |
| B24 | 133 % of control |
| B25 | 111 % of control |
| B26 | 109 % of control |
| B27 | 122 % of control |
| B28 | 144 % of control |

| Binder | He/Con_2aR |
| --- | --- |
| B29 | 131 % of control |
| B30 | 108 % of control |
| B31 | 103 % of control |
| B32 | 116 % of control |
| B33 | 109 % of control |
| B34 | 114 % of control |
| B35 | 147 % of control |
| B36 | 109 % of control |
| B37 | 110 % of control |
| B38 | 106 % of control |
| B39 | 129 % of control |
| B40 | 141 % of control |
| B41 | 119 % of control |
| B42 | 124 % of control |
| B43 | 129 % of control |
| B44 | 115 % of control |
| B45 | 121 % of control |
| B46 | 112 % of control |
| B47 | 138 % of control |
| B48 | 109 % of control |
| B49 | 135 % of control |
| B50 | 107 % of control |
| B51 | 113 % of control |
| B52 | 108 % of control |
| B53 | 110 % of control |
| B54 | 137 % of control |
| B55 | 104 % of control |
